# From the supplement of paper PMC7125110
# ± gives the standard error. Variants at the floor of the assay were thinned out.
# B1: glmS ribozyme (parent)
# chain: AUAAAAGCGCCAGAACUACAGAAAUGUAGUUGACGAGGAGGAGGUUUAUCGAAUUUUCGGCGGAUGCCUCCAAA
# Key:
# Conditions in all cases: with glucosamine-6-phosphate
# [1] = variants of: B1; experiment: self-cleavage kobs at 640 uM GlcN6P; higher = faster cleavage; RNA array
# How it was run: (§1)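 kobs was derived by fitting per-tile medians to one- or two-exponential decays after normalising signals to baseline and to non-cleaving reference variants. Those signals came from barcoded ribozyme variants transcribed in situ by E. coli RNA polymerase on sequenced MiSeq chips, followed through a hybridised Cy3 probe at 37 °C and imaged over ~14 h. Glucosamine-6-phosphate (40 μM to 10 mM) in HEPES/KCl/Mg(OAc)2 buffer was flowed in. Weighted Michaelis–Menten fits across concentrations then gave kcat and KM.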
# [2] = variants of: B1; experiment: self-cleavage kobs at 2500 uM GlcN6P; higher = faster cleavage; RNA array
# How it was run: as §1
# [3] = variants of: B1; experiment: self-cleavage kobs at 10000 uM GlcN6P; higher = faster cleavage; RNA array
# How it was run: as §1
Variant,self-cleavage kobs at 640 uM GlcN6P [1] [s⁻¹],self-cleavage kobs at 2500 uM GlcN6P [2] [s⁻¹],self-cleavage kobs at 10000 uM GlcN6P [3] [s⁻¹]
G7U G38A G44U,< 1e-05,,
G41A C58A U69A,< 1e-05,< 1e-05,
C11U G32C A36G,< 1e-05,< 1e-05,< 1e-05
C10U U30A A33U,< 1e-05,,
C11G A14U A52U C68G,0.000115 ± 3.6e-05,,
G43C U49A U57G C68G,< 1e-05,,
C11A G13U U57G C71U,4.71e-05 ± 2.2e-05,,
A15G A53C C68U,4.28e-05 ± 2e-05,0.000114 ± 3.9e-05,
G29U A33C C50U U57A C61U,< 1e-05,,
A6G U31G G35A U65C,< 1e-05,< 1e-05,
G37C A48C C71G,< 1e-05,,
G9A G41A A53U,< 1e-05,< 1e-05,
C11A U30G G32U G44A G66A,< 1e-05,< 1e-05,
G29C U47A C50A,< 1e-05,,< 1e-05
U46C C67U,0.000202 ± 5.2e-05,0.000469 ± 0.00013,0.000426 ± 8.9e-05
G44A U46A G62A,< 1e-05,,
A6C U46C U47C G59A,< 1e-05,,
A33U G41U A48C C68U,< 1e-05,,
G7A A15U A33G A36U G38U U57C,< 1e-05,< 1e-05,
A33U U45G U47A C67A C68G,< 1e-05,< 1e-05,
G60C C70A,< 1e-05,,< 1e-05
G43C U46A A48C,< 1e-05,< 1e-05,< 1e-05

Variant,self-cleavage kobs at 640 uM GlcN6P [1] [s⁻¹],self-cleavage kobs at 2500 uM GlcN6P [2] [s⁻¹],self-cleavage kobs at 10000 uM GlcN6P [3] [s⁻¹]
A42C A48U C68G,< 1e-05,,
C8A A14G G29A A36U,< 1e-05,< 1e-05,
G7C A36C U56A,< 1e-05,,
A14U U65A C70U,0.000274 ± 4.7e-05,0.000248 ± 9.4e-05,0.000945 ± 0.0002
G51A G62C G63C,< 1e-05,,
A14U U46C C70U,0.000206 ± 5e-05,,
A12U A39C A42U G60A,< 1e-05,,< 1e-05
C34U U49A U55G C61U C68G,0.000585 ± 0.00016,,
A12U G13U U46G,< 1e-05,,
U30G A48U U65A U69G C70U,4.35e-05 ± 2e-05,,
A6G G38U,< 1e-05,< 1e-05,< 1e-05
G7U C8A C10U U46C A52U,< 1e-05,,
G13U U56G C70G,6.47e-05 ± 3.1e-05,4.09e-05 ± 1.9e-05,
G32U C50U C61U,< 1e-05,< 1e-05,
A6C G40C G60U,< 1e-05,,
A12U C50U,4.86e-05 ± 1.1e-05,9.52e-05 ± 1.7e-05,0.00036 ± 4.5e-05
C34U G51C U54A,< 1e-05,< 1e-05,
U31A G32C C61U,< 1e-05,,
G7C A64C,< 1e-05,,
G32U A52U C58U,< 1e-05,< 1e-05,
C10U A39U A52U C58G C71U,< 1e-05,< 1e-05,
U31A A42U U57A A64G C71A,< 1e-05,,

Variant,self-cleavage kobs at 640 uM GlcN6P [1] [s⁻¹],self-cleavage kobs at 2500 uM GlcN6P [2] [s⁻¹],self-cleavage kobs at 10000 uM GlcN6P [3] [s⁻¹]
A12U U31A C34U G37C C70U,< 1e-05,,
A15C A48U C68U,< 1e-05,,
C8A U31C G32A,< 1e-05,,
A14U A15U C68U,8.97e-05 ± 2.4e-05,0.000111 ± 3.2e-05,
C16U U46C A53U,0.000328 ± 7.3e-05,0.00078 ± 0.00025,
C50G C58U C61U,0.000479 ± 0.00011,,
G32A U54C C67U,0.000136 ± 3.3e-05,0.000349 ± 9.2e-05,
A39G C67G C68G,9.65e-05 ± 2.5e-05,7.78e-05 ± 1.7e-05,
C10A A14C A64U,< 1e-05,< 1e-05,
U30C C34A A36G A52U,< 1e-05,< 1e-05,
G13U G35U G40U A53U,< 1e-05,,
A6U C10A A14U C70U,0.000391 ± 8.2e-05,5.43e-05 ± 2.3e-05,
G9C C16G,< 1e-05,< 1e-05,
G9A G37C U54G G60U C68U,< 1e-05,< 1e-05,
U46G C58A A64U,< 1e-05,< 1e-05,
C11U G13A A48G U56C,< 1e-05,,
A14U C34U G37C G51A U55C,< 1e-05,,
C10A A12C G43A C67U C70G,< 1e-05,< 1e-05,
U30G A53G C67U,0.000643 ± 0.00013,0.00132 ± 0.00032,
A6G A15G A42G,0.000137 ± 4.7e-05,,
A12C U65G C67U,0.000474 ± 0.00016,,0.00133 ± 0.00031
